The text below walks through data of PMC8426336.

This test deals with Trimeric form of SARS-CoV-2 RBD (T-RBD) (SARS-CoV-2 | not stated). Nature of the test: western blot under reduced and nonreduced conditions. In general terms: In western blotting, separated proteins are transferred to a membrane and probed.

A word on the stoichiometry N: it is the number of molecules, sites or subunits per partner or assembly. Consider Trimeric form of SARS-CoV-2 RBD (T-RBD), for which the stoichiometry N was 3.
